Experimental data from patent US20120156203A1 (Genentech, published 2012).

T1: mouse IL13 (mouse, UniProt P20109 22-131, limits assumed)
T1 construct: also called E. coli expressed mouse IL13 (R&D Systems); murine IL13
T1 sequence: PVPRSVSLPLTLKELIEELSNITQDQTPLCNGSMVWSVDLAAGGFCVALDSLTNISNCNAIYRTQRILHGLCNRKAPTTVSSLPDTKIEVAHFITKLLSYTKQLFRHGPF

T2: 12-mer peptide of human IL13, YCAALESLINVS (human, synthesized via SPOT on cellulose membrane)
T2 peptide: YCAALESLINVS

B1: anti-IL13 monoclonal antibody 227-26 (antibody, V domains shown)
VH: QVQLQQSGDDLVLPGASVKLSCKASGYTFTSYWINWIKQRPGQGLEWIGHIAPGSGSTYFNEMFKGKATLTVDTSSSTAYIQLSSLSSEDSAVYFCARSDIFLSYAMDYWGQGTSVTVSS
VL: DVLMTQTPLSLPVSLGDQASISCRSSQSIVHSNGNTYLQWYLQKPGQSPKLLIYKVSNRFSGVPDRFSGSGSGTDFTLKISRVEAEDLGVYYCFQGSHVPYTFGGGTKLEIK
notes: also called hybridoma ATCC PTA-5654
B2: anti-IL13 monoclonal antibody 228B/C-1 (antibody, V domains shown)
VH: QVQLQESGPGLVAPSQSLSITCTVSGFSLNAYSVNWVRQPPGKGLEWLGMIWGDGKIVYNSALKSRLNISKDSSKSQVFLKMSSLQSDDTARYYCAGDGYYPYAMDNWGHGTSVTVSS
VL: NIVLTQSPASLAVSLGQRATISCRASKSVDSYGNSFMHWYQQKPGQPPKLLIYLASNLESGVPARFSGSGSRTDFTLTIDPVEADDAASYYCQQNNEDPRTFGGGTKLEIK
B3: chimeric Fab of 228B/C (Fab, V domains shown)
VH: B2 VH
VL: B2 VL
modifications: Used labeled in the competition assay of paragraph 260; the label is not named.
notes: also called chimeric clone

How the values were obtained:
mouse IL13 = target: T1, mouse IL13; experiment: ELISA on plate-coated E. coli expressed mouse IL13
Protocol: (§1) The reactivity of various anti-IL13 monoclonal antibodies was tested by ELISA. Different wells of 96-well microtest plates were coated with either E. coli expressed non-glycosylated human IL13 (R&D Systems), 293T cell expressed glycosylated MT-IL13/Fc, or E. coli expressed mouse IL13 (R&D Systems) by the addition of 100 μL of IL13 protein at 0.1 μg/mL in PBS. After overnight incubation at room temperature, the wells were treated with PBSTB (PBST containing 2% BSA) to saturate the remaining binding sites. The wells were then washed with PBST.
(§2) One hundred microliters of two-fold serially diluted anti-IL13 MAbs (0.5 μg/mL (3.33 nM) to […] (0.00033 nM)) were added to the wells for 1 hour at room temperature. An anti-IL13 MAb JES-5A2 from (BD Biosciences-Pharmingen, San Diego, Calif.) was also tested as a positive control. This antibody was generated by using E. coli expressed human IL13 as immunogen. An isotype-matched mouse anti-HIV-1 gp120 MAb was used as irrelevant negative control. The wells were then washed with PBST. Bound antibody was detected by incubation with diluted HRP-goat anti-mouse IgG (Fc) (Jackson ImmunoResearch) for 1 hour at room temperature. Peroxidase substrate solution was then added for color development as described above. The OD₄₅₀ was measured using an ELISA reader.

human IL13 [1] = target: T3, human IL13 (human, UniProt P35225 35-146); experiment: ELISA; wells coated with E. coli expressed non-glycosylated human IL13 (0.1 µg/mL); bound MAb detected with HRP-goat anti-mouse IgG (Fc); OD 450 nm
T3 construct: also called E. coli expressed non-glycosylated human IL13 (R&D Systems); recombinant IL13
Protocol: as §1, §2

human IL13 [2] = target: T3, human IL13; experiment: cell-based or functional assay
[3] = target: T2, 12-mer peptide of human IL13, …; experiment: peptide spot analysis on cellulose membrane
Description: This epitope was further confirmed by peptide spot analysis. The entire human IL13 peptide was scanned with a series of overlapping 12-mer peptides synthesized via SPOT on cellulose membrane. The only anti-IL13 MAb reactive peptide was identified as a 12-mer peptide of amino acid #44-56, […] (SEQ ID NO 19), which is overlapping with the region identified through domain swapping experiments.

[4] = target: T4, IL-13 (antigen captured on the plate in the Fab ELISAs of Examples 9 and 10) (UniProt P35225 35-146); experiment: ELISA; IL-13 captured on the plate in a limiting amount; Fab titrated 1:3; detected with a secondary antibody specific for Fab; A560 nm
T4 construct: also called the antigen IL-13

[5] = target: T4, IL-13 (antigen captured on the plate in …); experiment: as above; remark: listed apart in the source
[6] = target: T4, IL-13 (antigen captured on the plate in …); experiment: as above; remark: listed apart in the source
[7] = target: T4, IL-13 (antigen captured on the plate in …); experiment: ELISA; IL-13 captured on the plate in a limiting amount; Fab titrated 1:3; detected with a secondary antibody specific for Fab; A410 nm
[8] = target: T4, IL-13 (antigen captured on the plate in …); experiment: ELISA; IL-13 captured on the plate in a limiting amount; Fab titrated 1:3; detected with a secondary antibody specific for Fab; A 560 nm
[9] = target: T4, IL-13 (antigen captured on the plate in …); experiment: competition ELISA; IL-13 captured on the plate; purified Fab pre-mixed with a constant concentration of labeled chimeric anti-IL-13 Fab (228 B/C #3); Abs 590 nm of bound labeled Fab
Protocol: To confirm that these combinatorial candidates maintained function, a competition assay was performed. For this assay, IL-13 was captured on an ELISA plate. The candidates, which are purified Fabs, were pre-mixed in varying concentrations to a constant concentration of labeled chimeric anti-IL-13 Fab. This mixture was added to the ELISA plate. The labeled chimeric anti-IL-13 capable of binding to the plate-bound IL-13 were detected.

T4 sequence (P35225 35-146 limits assumed): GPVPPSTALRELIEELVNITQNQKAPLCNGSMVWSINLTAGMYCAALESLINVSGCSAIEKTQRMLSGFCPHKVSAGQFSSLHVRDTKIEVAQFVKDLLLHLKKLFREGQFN
T3 sequence (P35225 other isoform, or with tags, fused parts or gaps limits assumed): as the sequence (P35225 35-146 limits assumed) above, with Q110R counted along it

| Binder | binding result (mouse IL13) | EC50 (read off the curve) (human IL13 [1]) [pM] | molar stoichiometric ratio (MAb:IL13) for complete inhibition, CD14 and CD23 assays (human IL13 [2]) | molar stoichiometric ratio between 228B/C-1 and IL13 for complete inhibition, Stat6 assay (human IL13 [2]) | binding result [3] | EC50 (read off the curve) [4] [ng/mL] | EC50 (read off the curve) [5] [ng/mL] | EC50 (read off the curve) [6] [ng/mL] | EC50 (read off the curve) [7] [ng/mL] | EC50 (read off the curve) [8] [ng/mL] | IC50 (read off the curve) [9] [ng/mL] |
| --- | --- | --- | --- | --- | --- | --- | --- | --- | --- | --- | --- |
| B1 | no binding | ~20 | – | – | – | – | – | – | – | – | – |
| B2 | – | ~10 | 0.5 MAb:IL13 molar ratio | ~0.5 MAb:IL13 molar ratio | binds | – | – | – | – | – | – |
| B3 | – | – | – | – | – | ~10 | ~7 | ~4 | ~20 | ~7 | ~90 |
